Test results taken from publication PMC4460183, “Catalytic and hydrodynamic properties of styrene monooxygenases from Rhodococcus opacus 1CP are modulated by cofactor binding” (AMB Express, 2015).
“And” between values parts separate entries of the source, which are not always exact repeats. Equal values may be shown once. Values belong to the molecule of their own block, whether it stands above or below them.

Columns and labels:
[1] = target: T1, StyA1 (Rhodococcus opacus, UniProt C7ACG0); experiment: analytical gel filtration, oligomer shift; format: binding; conditions: 12.7 µM FAD, no dithionite; 10 mM Tris-HCl pH 7.2, 500 mM NaCl, 22 °C
T1 construct: N-terminal His10 tag kept, E. coli BL21; apo form purified; monomer-dimer, dimer with reduced FAD; oxygenase assays with P. fluorescens ST StyB as coupling reductase

[2] = target: T2, StyA (Rhodococcus opacus, UniProt A0A076JVU4); experiment: HPLC of phenyl vinyl sulfoxide formed; format: biochemical; conditions: StyB of P. fluorescens ST (threefold excess), FAD, NADH regeneration by formate dehydrogenase, catalase
T2 construct: full length, 427 residues, 46,580 Da calculated; apo form purified; monomer; P. fluorescens ST StyB as coupling reductase in oxygenase assays

[3] = target: StyA2B self-sufficient styrene monooxygenase from Rhodococcus opacus 1CP (Rhodococcus opacus 1CP) (UniProt C7ACG1); experiment: SEC; analytical gel filtration, Superdex 200 HR 10/30, 22°C, 10 mM Tris-HCl pH 7.2, 500 mM NaCl; oxidized holoenzyme, 12.7 µM FAD in buffer and sample
[4] = target: StyA2B self-sufficient styrene monooxygenase from Rhodococcus opacus 1CP (Rhodococcus opacus 1CP) (UniProt C7ACG1); experiment: SEC; analytical gel filtration, Superdex 200 HR 10/30, 22°C, 10 mM Tris-HCl pH 7.2, 500 mM NaCl; reduced holoenzyme, 12.7 µM FAD and 1 mM sodium dithionite, anaerobic buffer
[5] = target: StyA2B self-sufficient styrene monooxygenase from Rhodococcus opacus 1CP (Rhodococcus opacus 1CP) (UniProt C7ACG1); experiment: SEC; analytical gel filtration, Superdex 200 HR 10/30, 22°C, 0.6 mL/min, 10 mM Tris-HCl pH 7.2, 500 mM NaCl; 100 µL of protein (1.95 mg/mL StyA1, 2.17 mg/mL StyA2B, 11.45 mg/mL StyA); apo-enzyme, no FAD
[6] = target: StyA1 styrene monooxygenase from Rhodococcus opacus 1CP (Rhodococcus opacus 1CP) (UniProt C7ACG0); experiment: SEC; analytical gel filtration, Superdex 200 HR 10/30, 22°C, 10 mM Tris-HCl pH 7.2, 500 mM NaCl; oxidized holoenzyme, 12.7 µM FAD in buffer and sample
[7] = target: StyA1 styrene monooxygenase from Rhodococcus opacus 1CP (Rhodococcus opacus 1CP) (UniProt C7ACG0); experiment: SEC; analytical gel filtration, Superdex 200 HR 10/30, 22°C, 10 mM Tris-HCl pH 7.2, 500 mM NaCl; reduced holoenzyme, 12.7 µM FAD and 1 mM sodium dithionite, anaerobic buffer
[8] = target: StyA1 styrene monooxygenase from Rhodococcus opacus 1CP (Rhodococcus opacus 1CP) (UniProt C7ACG0); experiment: SEC; analytical gel filtration, Superdex 200 HR 10/30, 22°C, 0.6 mL/min, 10 mM Tris-HCl pH 7.2, 500 mM NaCl; 100 µL of protein (1.95 mg/mL StyA1, 2.17 mg/mL StyA2B, 11.45 mg/mL StyA); apo-enzyme, no FAD
[9] = substrate: Cc1cc2nc3c(=O)[nH]c(=O)nc-3n(C[C@H](O)[C@H](O)[C@H](O)COP(=O)(O)OP(=O)(O)OC[C@H]3O[C@@H](n4cnc5c(N)ncnc54)[C@H](O)[C@@H]3O)c2cc1C; experiment: NADH consumption, spectrophotometric, Michaelis-Menten fit; format: biochemical, Rhodococcus opacus; conditions: NADH in excess, 8 mM Tris-HCl pH 7.5, 30 °C, read at 320 nm, apparent constant
Source text: (§1) NADH consumption, spectrophotometric, Michaelis-Menten fit on StyB-1CP (StyB from Rhodococcus opacus 1CP)

[10] = substrate: NC(=O)C1=CN([C@@H]2O[C@H](COP(=O)(O)OP(=O)(O)OC[C@H]3O[C@@H](n4cnc5c(N)ncnc54)[C@H](O)[C@@H]3O)[C@@H](O)[C@H]2O)C=CC1; experiment: as above; format: biochemical, Rhodococcus opacus; conditions: FAD in excess, 8 mM Tris-HCl pH 7.5, 30 °C, read at 320 nm, apparent constant
Source text: as §1

[11] = target: the molecule itself; experiment: SEC; data not shown; StyB in the presence of the cofactor FAD; method taken from the section on quaternary structure (analytical gel filtration), not given
[12] = substrate: Cc1cc2nc3c(=O)[nH]c(=O)nc-3n(C[C@H](O)[C@H](O)[C@H](O)COP(=O)(O)OP(=O)(O)OC[C@H]3O[C@@H](n4cnc5c(N)ncnc54)[C@H](O)[C@@H]3O)c2cc1C; experiment: purified protein; format: biochemical, Pseudomonas fluorescens; conditions: NADH in excess, 8 mM Tris-HCl pH 7.5, 30 °C
[13] = substrate: NC(=O)C1=CN([C@@H]2O[C@H](COP(=O)(O)OP(=O)(O)OC[C@H]3O[C@@H](n4cnc5c(N)ncnc54)[C@H](O)[C@@H]3O)[C@@H](O)[C@H]2O)C=CC1; experiment: purified protein; format: biochemical, Pseudomonas fluorescens; conditions: FAD in excess, 8 mM Tris-HCl pH 7.5, 30 °C
[14] = target: the molecule itself; experiment: SEC; analytical gel filtration, Superdex 200 HR 10/30, 22°C, 10 mM Tris-HCl pH 7.2, 500 mM NaCl; oxidized holoenzyme, 12.7 µM FAD in buffer and sample
[15] = target: the molecule itself; experiment: SEC; analytical gel filtration, Superdex 200 HR 10/30, 22°C, 0.6 mL/min, 10 mM Tris-HCl pH 7.2, 500 mM NaCl; 100 µL of protein (1.95 mg/mL StyA1, 2.17 mg/mL StyA2B, 11.45 mg/mL StyA); apo-enzyme, no FAD

T1 sequence (C7ACG0 entry or part of it): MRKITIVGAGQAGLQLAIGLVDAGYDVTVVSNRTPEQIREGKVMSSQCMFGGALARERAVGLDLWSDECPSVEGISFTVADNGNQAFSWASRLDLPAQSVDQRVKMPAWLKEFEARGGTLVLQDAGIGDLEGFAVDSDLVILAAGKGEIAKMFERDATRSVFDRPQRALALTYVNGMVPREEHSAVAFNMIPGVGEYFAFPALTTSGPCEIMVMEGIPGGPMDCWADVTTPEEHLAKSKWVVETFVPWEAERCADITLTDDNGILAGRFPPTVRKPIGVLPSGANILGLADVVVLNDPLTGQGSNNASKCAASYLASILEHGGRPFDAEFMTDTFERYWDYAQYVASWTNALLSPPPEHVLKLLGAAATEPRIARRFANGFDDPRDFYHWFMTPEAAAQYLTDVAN

Molecule: Cc1cc2nc3c(=O)[nH]c(=O)nc-3n(C[C@H](O)[C@H](O)[C@H](O)COP(=O)(O)OP(=O)(O)OC[C@H]3O[C@@H](n4cnc5c(N)ncnc54)[C@H](O)[C@@H]3O)c2cc1C [FAD]
- analytical gel filtration, oligomer shift [1]: For holo-StyA1, the equilibrium shifted towards the dimeric form

Molecule: C=CSc1ccccc1 [phenyl vinyl sulfide]
- HPLC of phenyl vinyl sulfoxide formed [2]: All three SMO isoforms were found to convert this substrate

- stoichiometry N [3]: 2
- stoichiometry N [4]: 2
- stoichiometry N [5]: 2
Molecule: StyA2B self-sufficient styrene monooxygenase from Rhodococcus opacus 1CP (from UniProt C7ACG1 1-573) (enzyme)

- stoichiometry N [6]: 2
- stoichiometry N [7]: 2
- stoichiometry N [8]: 2
Molecule: StyA1 styrene monooxygenase from Rhodococcus opacus 1CP (from UniProt C7ACG0 1-406) (enzyme)

B1: StyB flavin reductase from Rhodococcus opacus 1CP (enzyme, UniProt A0A076K0M4 1-177, looked up)
chain: MTRAAEAPPAPEVLSAPVEVAADSTQFRNSVALFATGIAVVTMQDGEGGVHGATINSFTSISLDPPTVMISLKPGYAHELISKSGWYGVSVLSKTQQEHSRYFCGTRDSDWHPQFVAGENVPTLFGSLARFECKVIDTITVNDHTLFLARVARCESEDGSPLMFFASTYHQPALGES
notes: StyB, FAD reductase of the styABCD cluster, Rhodococcus opacus 1CP, 178 amino acid residues, calculated mass 19,053 Da; also called StyB-1CP; source: E. coli BL21, purified (HisTrap FF IMAC), concentrated in the presence of 10 µM FAD
- Km [9]: 108.3 ± 18.3 µM
- kcat [9]: 32.9 ± 2.3 s⁻¹
- kcat/Km [9]: 304000 M⁻¹ s⁻¹
- Km [10]: 59.3 ± 4.2 µM
- kcat [10]: 26.9 ± 0.6 s⁻¹
- kcat/Km [10]: 454000 M⁻¹ s⁻¹
- stoichiometry N [11]: 2

B2: StyB-ST (StyB from P. fluorescens ST) (Pseudomonas fluorescens) (protein)
chain: MTLKKDVAVDIDSTCFRQAVALFATGIAVLSAETEEGEVHGMTVNSFTSISLDPPTVMVSLKSGRMHELLTRGGRFGVSLLGESQKVFSAFFSKRVMDDTPSPAFTIQAGLPTLRDAMAWFECEVESTVQVHDHTLFIARVSACGTPEANAPQPLLFFASRYHGKPLPLN
notes: full length; E. coli BL21
- Km [12]: 2.6 ± 0.4 µM
- kcat [12]: 8.7 ± 0.3 s⁻¹
- kcat/Km [12]: 3.35e+06 M⁻¹ s⁻¹
- Km [13]: 18.9 ± 1.0 µM
- kcat [13]: 8.8 ± 0.1 s⁻¹
- kcat/Km [13]: 466000 M⁻¹ s⁻¹

B3: StyA styrene monooxygenase from Rhodococcus opacus 1CP (styABCD cluster) (enzyme, UniProt A0A076JVU4 1-426, looked up)
chain: MSKRIAIVGAGTAGLHLGLYLNEKGIDATIFTDRRPEEYANIRLLNTVAHHSVTIDREDALGIDHWPNDGYFGHYYYVGIPGMPIRSYGDLAKPSRAVDYRILQPQLMRDFEERGGKIEYRPIRVEDLTVLSDDYDLVVIGTGKGGLGTLFARDEQSSPFTEPQRQLCVGIFKGIAPAETRAVTFCISPGAGEMIEIPTVTFSGDATALVFENHIGSDLEVLAHTRYEDDPRAFLDLMIEKLKQHYPITAERLDEKEFDVANSHLDILQGGVTPTVRHGHVKLDNGKLAVLLGDAHATVDPVLGQGGNMASYAAHVLGEEIAGNEVYDELFCERVDARRAGRVLGATRWTNFMLSNLKELPNHFVEFLGRVMMDRQLADRFTDNFNYPEKQWDIFSSPENMVAWIEANETGAEETERPFAQTGAQS
notes: StyA of the styABCD cluster, Rhodococcus opacus 1CP, 427 amino acid residues, calculated mass 46,580 Da; amplified from genomic DNA with printed primers that hold the start codon (NdeI CATATG) and the stop codon (TCA in the reverse primer); Apparent subunit mass 50 kDa including the His-tag (SDS-PAGE); also called holo-StyA; source: E. coli BL21, purified (HisTrap FF IMAC)
- stoichiometry N [14]: 2
- stoichiometry N [15]: 2 and 4
